Test: soluble on expression in E. coli; label from the status in PepcDB or PDB records

Sequence	soluble on expression in E. coli
MDALVIRNPELLADALRGLSQSPKRMEPKWFYDAEGSALFERITELPEYYPTRTETAILTAGADRLAAHVPEGAELVELGSGASVKTRLLLDRLTGLSAYVPVDISASFLKETARALARDYPDLPIHPVVADFTKPLRLADEGHPRVGFFPGSTLGNLDPEGARALMRGVRDWPGIRGFIVGIDLIKDEDTLVRAYDDAAGVTAAFNLNLLHRMNREIGADFDPDRFAHRAIWNAEKARIEMHLESLEDQEVQIGPRRIRFRAGETIHTENSHKFSATSFAERAAEAGWRLADFLTDARRQFGVAVLEPA	not soluble
MNKETLQLFRTLTELQGASGFEHDVRRFMKQELSKYADEIVQDGLGSVFGLKKGDETGPRVLVAGHMDEVGFMVTQITKNGMLRFQTLGGWWSQVLLAQRVQVMTKNGPVIGVVGSIPPHLLSDAQRAKPMDIKNMLIDIGADSYEDAIEIGVKPGQQIVPICPFTPMANEKKIMAKAWDNRYGCGLAIELLKELKDETLPNTLYSGATVQEEVGLRGAQTAANMIQPDIFYALDASPANDASGDKTQFGQLGKGALLRIYDRTMVTHRGIREFILDTAETNNIPYQYFISQGGTDAGRVHTSNSGIPSAVIGVCARYVHTHASILHVDDYAAAKELITKLVRTTDKTTLETIKNNA	not soluble
TDTLTRDNGAVVGDNQNSQTAGAQGPVLLQDVQLLQKLQRFDRERIPERVVHARGTGVKGEFTASADISDLSKATVFKSGEKTPVFVRFSSVVHGNHSPETLRDPHGFATKFYTADGNWDLVGNNFPTFFIRDAIKFPDMVHAFKPDPRTNLDNDSRRFDFFSHVPEATRTLTLLYSNEGTPAGYRFMDGNGVHAYKLVNAKGEVHYVKFHWKSLQGIKNLDPKEVAQVQSKDYSHLTNDLVGAIKKGDFPKWDLYVQVLKPEELAKFDFDPLDATKIWPDVPEKKIGQMVLNKNVDNFFQETEQVAMAPANLVPGIEPSEDRLLQGRVFSYADTQMYRLGANGLSLPVNQPKVAVNNGNQDGALNTGHTTSGVNYEPSRLEPRPADDKARYSELPLSGTTQQAKITREQNFKQAGDLYRSYSAKEKTDLVQKFGESLADTLTESKNIMLSYLYKEDPNYGTRVAEVAKGDLSKVKSLAASLKD	soluble
MASTGVERRKPLENKVALVTASTDGIGLAIARRLAQDGAHVVVSSRKQENVDRTVATLQGEGLSVTGTVCHVGKAEDRERLVAMAVNLHGGVDILVSNAAVNPFFGNIIDATEEVWDKILHVNVKATVLMTKAVVPEMEKRGGGSVLIVSSVGAYHPFPNLGPYNVSKTALLGLTKNLAVELAPRNIRVNCLAPGLIKTNFSQVLWMDKARKEYMKESLRIRRLGNPEDCAGIVSFLCSEDASYITGETVVVGGGTASRL	soluble
MVYDLAIIGGGINGCGIARDAAGRGHSVFLCEMNDLASGTSSWSTKLIHGGLRYLEYFEFRLVREALIERERLWQIAPHIIGPLRFVLPHHDGLRPAWRLRLGLFMYDYLGGRKLLPPTRSVDLAHDEVGKPLIPGRYTKGFEYSDCFVDDARLVVLTARDAAERGAEIRTRTRAVQVSQQGGIWQVTLEDVGSGARSTIQARALVNAAGPWVEGVLRSGAGVDARYKVRLVQGSHIVTRKLYDHDRAYIFQNADGRIVFAIPYQGDFTLIGTTDRDYHGDPSQVKATPEEIDYLCKAVSGYFAKPVTPADVVWTFSGVRPLYDDGASEAKAATRDYVFELDTPGGAPLLSIYGGKITTYRRLAEEALEKLSSYLKGGTAKQGWTAHQPLPGGDFPVDGGPALIGDLLREYPFLASAHASRLVHAYGTRARDVLGSAKSAADLGRDFGATLTEAEVRYLMSREWACSADDIVWRRSKLGLRLTPAAVAALDEWVIVHRAAEKPQQQAGGRALEHHHHHH	not soluble
NLHGMEQIEFQVSAHRDLPLRPLNKVASGGELSRISLAIQVITSKAGTVPTLIFDEVDTGIGGRIAAIVGKLLQQLGKTRQVMSITHLPQVAARGDHHWRVSKTSETED	not soluble
MRGSHHHHHHTDPLPRLPVPPLQQSLDHYLKALQPIVSEEEWAHTKQLVDEFQASGGVGERLQKGLERRARKTENWLSEWWLKTAYLQYRQPVVIYSSPGVMLPKQDFVDLQGQLRFAAKLIEGVLDFKVMIDNETLPVEYLGGKPLCMNQYYQILSSCRVPGPKQDTVSNFSKTKKPPTHITVVHNYQFFELDVYHSDGTPLTADQIFVQLEKIWNSSLQTNKEPVGILTSNHRNSWAKAYNTLIKDKVNRDSVRSIQKSIFTVCLDATMPRVSEDVYRSHVAGQMLHGGGSRLNSGNRWFDKTLQFIVAEDGSCGLVYEHAAAEGPPIVTLLDYVIEYTKKPELVRSPMVPLPMPKKLRFNITPEIKSDIEKAKQNLSIMIQDLDITVMVFHHFGKDFPKSEKLSPDAFIQMALQLAYYRIYGQACATYESASLRMFHLGRTDTIRSASMDSLTFVKAMDDSSVTEHQKVELLRKAVQAHRGYTDRAIRGEAFDRHLLGLKLQAIEDLVSTPDIFMDTSYAIAMHFHLSTSQVPAKTDCVMFFGPVVPDGYGVCYNPMEAHINFSLSAYNSCAETNAARLAHYLEKALLDMRALLQSHPRAKLISEEDLSLISG	soluble
MGSDKIHHHHHHMNFLDGHLFPENQQPLIITAAPYAPGWLPSDFPEDIPVTMEEQIQKAVDCYNAGATVLHLHVRELDGKGSKRLSKFNELVAGVRKAVPEMIIQVGGSISFAPENEGQAAKWLSDDTRHMLADLEPTPDQVTVTVNTSQMNVTDHAEDADFRGTSRENPAIFNAYKEMTVPAQPGWVEEHVRRLTAKGIQSAFQCYNTNSFESVERLMRRGFYKGPLVMNWVAIGGGMDTPNVYSLGNFMRGVPDGAVVTVESNVRNVLPVNMMGIAMGLHVRCGTEDVLWNQKRTAKMSTVKQIEQLVRISHEFGREIATAKEAREISKIGVFYDTVEESLQANGFAPNRNGGTQGYLRKTR	not soluble
SLALPADPIQRCLDIRRLVDITSRQKMAAKEPGVLRFKFHKISASELPLDNPVGNMDEVIQALNNQIENCNNSYGEFQTVTIAGHQFKRQEWCLNTNKKMLTLAKAAHGDFKKFLSSIKTEFDWYKSDGWPENHAGFKKGEFQFTAYYAPAAVEARSERGGAFLYPLYSNPGVVSVALESKKYNLKTPLCGVDPLSKVMRGFCLKNADGTYSVAPDREEIEHGALNPKYIIGYLKDPNDSAFLMLQGSGSLLLDGKLFHINYDGANGRPRTMLGRIVQCAQDPTCGGNLDTMERCAKDPKCHDEAKLRCNVSKKIRQSAASEKLIRQYLNNLTPDKADNLRNRDQSYVFFAKEDGGPYGSENISLTPHV	not soluble
MEPVRIGGPVGAGKTMLVEKLTRAMHRRFSIAVITNDIYTKEDAQFLIKHSVLPEDRIIGVETGGCPHTAIREDASMNFAAIDELKRRHPDVELILIESGGDNLAATFSPELVDFSIYVIDVAQGEKIPRKGGQGMIKSDLLVINKIDLAPYVGASLEVMERDAKAVRGAKPVIFTNLKEEIGLFDVVDWIEKQVLLAGLEE	not soluble
MAVKRPVRVLVNMDGVLADFESGLLQGFRRRFPEEPHVPLEQRRGFLANEQYGALRPDLAEKVASVYESPGFFLNLEPIPGALDALREMNDMKDTEVFICTTPLLKYDHCVGEKYRWVEQNLGPEFVERIILTRDKTVVMGDLLIDDKDNIQGLEETPSWEHILFTCCHNQHLALPPTRRRLLSWSDNWRGIIESKRASL	soluble
MSLDKSLLKIVTNETGVATTTVEKVIALLDEGNTVPFIARYRKEVTGGLDEVKIKSIQDKWNYVVNLSERKQEVLRIIEEQGKLTKELENDIKAATQLQRVEDLYRPYKQKRRTRATIAKEKGLEPLALLVWSQEKDIDLQEEAKQYFSEEHELHTTEDVLQGINDIIAEWISDDAKYRDYIRDITFKRGLIQSEVKKQEDDEKGIYEMYYSYSEAVRSLVSHRILALNRGEKEKILKVQIEPPVEQITSYLEKQTIKNNSNEQITNSLKAAVEDSYKRLIQPSIEREIRNELTEKAEAQAIEVFSVNLKNLLLQPPLKGKVVLSVDPAFRTGCKLAVVDETGKVHHIGVIYPTAPKNDVKGAEKVVLQLIEQFSVELIAIGNGTASRETEQFISDVIRNKELDLPYIIVNEAGASVYSASPLAREEFPDLQVEERSAVSIARRVQDPLAELVKIDPKSIGVGQYQHDVSQKELSGSLSFVVETAVNQVGVNVNTASSSLLQYVSGLSKTVANNMVKQRNEEGKFTNRKQLKKIPRLGAKTYEQAIGFLRIPDGDTILDRTPIHPESYDQTKNLLQMLGYTENDIGSEKLQQDLNNIDKKATAEKLEIGLPTLEDIMEALGKPGRDPRDDFPQPLLKKNVMNMEDLKSGMELQGTVRNVVDFGVFVDIGVKQDGLVHISKMSKQFVKHPMDIASVGDVVTVWVDQVDVQKGRIALTMVGNDEGHHHHHH	soluble
MNPLLFNDRTLKGSGVLARVTPTGTQYVASVVAAAFSSHFADIKPPKERKDHQLTTISTVTLRRLMLETLQLDKQLVTTTTSDGLLRITVQNISVSSSAVLSGELREIKLQDNVTFRTANLRIDTAIRIMKNAGGNPALKMESCKIVTQGIKLVTKPMDPRNGKSLADAIANDANTMFSDLICSKIDHIVSNRVNQRFALLSSRISLEDSKNFDIVKIIMQAEERLKRLVRQNMLRSNKTIRRNVHAHNARRVSRDPVRGKRQADEDKFHLILNSFNFSRADSLMLDYSMLSPPSLTSRGIELQTSGEVFQKGHVTPFGAGPIFLPRIPNPSQMLQIVVSDFVPNSLMFHGHRIKLFDTRIDWMTPQFGPVMRTTCDLSTGSLFCIGDLFPALREMLPDRNVAFLFTTLRAPAVIMQPEEKGGIHFSLRGLIRLVSDRNEPIGEMEIRIEALMKMKLTSKSVKGKVTIEEIQFTSRSPRILLQEELDDAGFLSREILQRMVNDILRQGIPIPIHPLFKLVKPKLTLLSRSMLLETNFLLNEHIIAQLTAEALVA	not soluble
MSLYISSALGPVDSGNKKEIEVEIPKGSSTSKIGEILEEKGAVKSGTVFSFYTKAKSKNLQAGTYLLNPSMSAKDVMEQMSSGNVHRPALYKVTIKEGAQVTEIAETVANELKWNKDDVVRQLNDKAFIQKMQQKYPKLLTDKIFDSNIKYPLEGYLYPATYSFYKKDTTLEEVVIPMLEKTNAIIVQNEAKMKAKNWDVHQLLTLSSLIEEEATGFTDRQKISSVFYNRLAKGMPLQTDPTVLYALGKHKQRVLYEDLKVNSPYNTYVVKGLPVGPIANSGKHSVEAALEPTQTDYYYFLAAPTGEVYYAKTLEEHNALKQKYITKKQEGHHHHHH	soluble
MDPVRILRHLITGQSAIKRAFPPATLTVIEQAIAHSETLHGGEIVFAVEASLDLPLLLQNQIIRERAIDVFSLLRVWDTEHNNGVLIYLLMADHDVEIVADRGIHTKVDQTIWETACDTMKTTFRHGQFEQGVLAGIDLSTRVLQQFFPASTGKRKSELPDRPVVLLEHHHHHH	not soluble
MASMTGGQQMGRGSSTSLYKKAGLMPSPMEDIEEILITEEQLKAKVKELGEMITRDYEGKDLVLIGVLKGAIMFMSGLSRAIDLPLSIDFLAVSSYGSSTKSSGIVKIIKDHDIDIEGKDVLIVEDIIDSGLTLAYLRETLLGRKPRSLKICTILDKPERREADVKVDYCGFKIPDKFVVGYGLDYAEKYRNLPFIGVLKPELYK	soluble
MNDDLIMRKKPEQIEMEFQDSGESALVKSTLLSSLQNSEWEIAVRKEVKKFLEKARDDVSAKEVFDAVKDMARREIPQEAKKKLYDQVLEFVTTTNKK	not soluble
SLSAPIRVLVVDDHVLSRRELEVALAAEADIEVVGSAVNSPAAVTLGSESRPDVALVDVEEPHEDGIRAVSAIKRAVSPVRILILATSDDEAHLFGAVRAGAVGYLLKPRPMDELTAAVRSVHNGVSIIGPGVASQVMKEFAAMARSEKSPAMPHLTVRELDVLKLMVGGCANQGISRRLLISENTVKNHIRNILEKLQFSAWEG	soluble
